# Test results from article PMC10786891, “Massively parallel profiling of RNA-targeting CRISPR-Cas13d”.
# T1: EsCas13d, nuclease-dead (Eubacterium siraeum, UniProt B0MS50, R295A;H300A;R849A;H854A)
# T1 sequence: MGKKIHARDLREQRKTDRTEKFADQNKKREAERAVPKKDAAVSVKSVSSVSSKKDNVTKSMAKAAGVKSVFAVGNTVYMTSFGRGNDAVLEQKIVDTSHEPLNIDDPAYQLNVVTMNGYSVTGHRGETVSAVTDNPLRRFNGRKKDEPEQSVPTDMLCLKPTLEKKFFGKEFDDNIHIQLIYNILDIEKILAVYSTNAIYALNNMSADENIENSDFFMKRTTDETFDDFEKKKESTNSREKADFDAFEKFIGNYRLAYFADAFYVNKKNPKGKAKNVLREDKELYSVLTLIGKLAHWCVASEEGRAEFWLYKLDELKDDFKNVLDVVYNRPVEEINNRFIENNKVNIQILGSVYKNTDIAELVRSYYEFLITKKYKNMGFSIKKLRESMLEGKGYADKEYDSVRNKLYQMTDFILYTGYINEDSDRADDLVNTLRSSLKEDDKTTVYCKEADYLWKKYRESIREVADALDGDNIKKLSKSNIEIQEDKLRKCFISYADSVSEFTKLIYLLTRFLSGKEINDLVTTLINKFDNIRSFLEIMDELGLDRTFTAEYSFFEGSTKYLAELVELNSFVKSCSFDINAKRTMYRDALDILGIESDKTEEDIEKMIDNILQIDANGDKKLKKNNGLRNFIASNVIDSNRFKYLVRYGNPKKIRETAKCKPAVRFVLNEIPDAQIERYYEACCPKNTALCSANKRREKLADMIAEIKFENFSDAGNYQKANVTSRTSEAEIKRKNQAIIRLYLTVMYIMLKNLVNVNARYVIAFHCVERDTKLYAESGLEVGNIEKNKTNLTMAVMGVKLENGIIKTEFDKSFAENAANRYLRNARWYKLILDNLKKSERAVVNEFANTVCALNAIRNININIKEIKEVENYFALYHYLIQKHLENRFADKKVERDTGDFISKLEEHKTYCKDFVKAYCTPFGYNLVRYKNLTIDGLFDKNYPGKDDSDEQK
# Target: T1, EsCas13d, nuclease-dead
# Assay: crRNA (strand 1, pre-loaded); Mg2+; 40 mM Tris-HCl pH 7.5, 150 mM NaCl, 6 mM MgCl2, 1 mM DTT, 0.1% Tween-20, 0.2 mg/ml BSA; 25 C; 10 min per concentration, then washed
# Settings: tags: His6-TwinStrep-SUMO cleaved; N-terminal SNAP kept (SNAP-Surface 488); label: 3' end held by stalled T7 RNA polymerase
row,Binder,Kd
1,"target 1 A1U,C4A (mixed) RNA 1: CACCCGUGCAAAAAUGCAGGGGUCUAAAACUGAGCGGAUAACCUCUCUAUGG RNA 2: GGGAAUGGAUCCACAUCUACGAAUUCGUACCAUAGAGAGGUUAUCCGAUCUCCGAGAUCGGAAGAGCACACGU",5.92 ± 0.27 nM
2,"target 1 C2A,G13U (mixed) RNA 1: CACCCGUGCAAAAAUGCAGGGGUCUAAAACUGAGCGGAUAACCUCUCUAUGG RNA 2: GGGAAUGGAUCCACAUCUACGAAUUCGUACCAUAGAGAUGUUAUCCGCUAACCGAGAUCGGAAGAGCACACGU",49 ± 8 nM
3,"target 1 insU 3' of 18,insC 3' of 15 (mixed) RNA 1: CACCCGUGCAAAAAUGCAGGGGUCUAAAACUGAGCGGAUAACCUCUCUAUGG RNA 2: GGGAAUGGAUCCACAUCUACGAAUUCGUACCAUAUGAGCAGGUUAUCCGCUCACCGAGAUCGGAAGAGCACACGU",49 ± 5 nM
4,"target 1 insC 3' of 14,insG 3' of 14 (mixed) RNA 1: CACCCGUGCAAAAAUGCAGGGGUCUAAAACUGAGCGGAUAACCUCUCUAUGG RNA 2: GGGAAUGGAUCCACAUCUACGAAUUCGUACCAUAGAGACGGGUUAUCCGCUCACCGAGAUCGGAAGAGCACACGU",50 ± 6 nM
5,"target 1 C4G,A9G (mixed) RNA 1: CACCCGUGCAAAAAUGCAGGGGUCUAAAACUGAGCGGAUAACCUCUCUAUGG RNA 2: GGGAAUGGAUCCACAUCUACGAAUUCGUACCAUAGAGAGGUUGUCCGGUCACCGAGAUCGGAAGAGCACACGU",3.9 ± 0.34 nM
6,"target 1 insG 3' of 8,insC 3' of 3 (mixed) RNA 1: CACCCGUGCAAAAAUGCAGGGGUCUAAAACUGAGCGGAUAACCUCUCUAUGG RNA 2: GGGAAUGGAUCCACAUCUACGAAUUCGUACCAUAGAGAGGUUAUGCCGCUCCACCGAGAUCGGAAGAGCACACGU",12.7 ± 0.6 nM
7,"target 1 C7A,C22G (mixed) RNA 1: CACCCGUGCAAAAAUGCAGGGGUCUAAAACUGAGCGGAUAACCUCUCUAUGG RNA 2: GGGAAUGGAUCCACAUCUACGAAUUCGUAGCAUAGAGAGGUUAUACGCUCACCGAGAUCGGAAGAGCACACGU",41 ± 6 nM
8,"target 1 C6A,G17A (mixed) RNA 1: CACCCGUGCAAAAAUGCAGGGGUCUAAAACUGAGCGGAUAACCUCUCUAUGG RNA 2: GGGAAUGGAUCCACAUCUACGAAUUCGUACCAUAAAGAGGUUAUCAGCUCACCGAGAUCGGAAGAGCACACGU",37.8 ± 2.4 nM
9,"target 1 insC 3' of 18,insU 3' of 5 (mixed) RNA 1: CACCCGUGCAAAAAUGCAGGGGUCUAAAACUGAGCGGAUAACCUCUCUAUGG RNA 2: GGGAAUGGAUCCACAUCUACGAAUUCGUACCAUACGAGAGGUUAUCCGUCUCACCGAGAUCGGAAGAGCACACGU",84 ± 31 nM
10,"target 1 G5C,G17A (mixed) RNA 1: CACCCGUGCAAAAAUGCAGGGGUCUAAAACUGAGCGGAUAACCUCUCUAUGG RNA 2: GGGAAUGGAUCCACAUCUACGAAUUCGUACCAUAAAGAGGUUAUCCCCUCACCGAGAUCGGAAGAGCACACGU",79 ± 28 nM
11,"target 1 U3G,A20U (mixed) RNA 1: CACCCGUGCAAAAAUGCAGGGGUCUAAAACUGAGCGGAUAACCUCUCUAUGG RNA 2: GGGAAUGGAUCCACAUCUACGAAUUCGUACCUUAGAGAGGUUAUCCGCGCACCGAGAUCGGAAGAGCACACGU",38 ± 4 nM
12,"target 1 insU 3' of 17,insC 3' of 16 (mixed) RNA 1: CACCCGUGCAAAAAUGCAGGGGUCUAAAACUGAGCGGAUAACCUCUCUAUGG RNA 2: GGGAAUGGAUCCACAUCUACGAAUUCGUACCAUAGUACGAGGUUAUCCGCUCACCGAGAUCGGAAGAGCACACGU",91 ± 20 nM
13,"target 1 G5C,C6G (mixed) RNA 1: CACCCGUGCAAAAAUGCAGGGGUCUAAAACUGAGCGGAUAACCUCUCUAUGG RNA 2: GGGAAUGGAUCCACAUCUACGAAUUCGUACCAUAGAGAGGUUAUCGCCUCACCGAGAUCGGAAGAGCACACGU",10.9 ± 0.6 nM
